Substitutions are numbered along the chain they refer to. Numbers in names are those of the source.
Tests used:
human CD154 [1] = target: T1, human CD154 (human, UniProt P29965 113-261, limits assumed, biotin-labeled); experiment: ECL competition, CD3ε[+]: CD3ε homodimer added as competitor [2]
T1 construct: also called biotin-labeled human CD154; biotinylated human CD154
T1 sequence (looked up): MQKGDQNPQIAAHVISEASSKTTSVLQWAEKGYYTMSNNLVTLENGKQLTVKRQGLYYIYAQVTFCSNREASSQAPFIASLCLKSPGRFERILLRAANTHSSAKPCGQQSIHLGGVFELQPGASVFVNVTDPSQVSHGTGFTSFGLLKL
Method: (§1) Next, each obtained IgG was evaluated for its binding to CD3 and human CD154 at the same time by the competition method (electrochemiluminescence method (ECL method)).
(§2) A TBST solution containing 0.5% BSA (referred to as a blocking solution; the TBST solution was TBS (manufactured by Takara Bio Inc.) supplemented with 0.1% Tween 20) was added at 150 μL/well to streptavidin plate (MSD K.K.), and the plate was incubated at room temperature for 1 hour or longer. After removal of the blocking solution, each well was washed three times with 250 μL of a TBST solution. The antibody-antigen complex solution was added thereto at 50 μL/well, and the plate was incubated at room temperature for 1 hour so that the biotinylated antigen-antibody-detection sulfo-tag antibody complex solution bound via the biotinylated antigen to the streptavidin plate. After removal of the antibody-antigen complex solution, each well was washed three times with a TBST solution, and a solution of 4×READ buffer (MSD K.K.) diluted 2-fold with water was added thereto at 150 μL/well, followed by the detection of the luminescence signal of the sulfo-tag using Sector Imager 2400 (MSD K.K.).

human CD154 [2] = target: T1, human CD154; experiment: ECL competition, CD3ε[+]: CD3ε homodimer added as competitor [1]
Method: as §1, §2

CD3ε homodimer protein [3] = target: T2, CD3ε homodimer protein (human, UniProt P07766 23-126, limits assumed); experiment: SPR (Biacore T200), one-arm antibody as analyte over immobilised CD3ε homodimer protein, single-cycle kinetics
T2 construct: also called human CD3ε homodimer protein
T2 sequence (P07766 23-126 limits assumed): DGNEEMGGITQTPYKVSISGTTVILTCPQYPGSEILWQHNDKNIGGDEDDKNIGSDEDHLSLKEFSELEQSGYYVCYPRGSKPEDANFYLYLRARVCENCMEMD

CD3ε homodimer protein [4] = target: CD3ε homodimer protein (human, UniProt P07766 23-126, limits assumed); experiment: SPR Biacore T200, CD3e homodimer on chip
Target sequence in this assay (P07766 23-126 limits assumed): as above
Method: An appropriate amount of CD3ε homodimer protein was immobilized onto Sensor chip CM4 (GE Healthcare Japan Corp.) by the amine coupling method. Then, the antibody having an appropriate concentration was injected thereto as an analyte and allowed to interact with the CD3ε homodimer protein on the sensor chip. Then, the sensor chip was regenerated by the injection of 10 mmol/L glycine-HCl (pH 1.5). The assay was conducted at 25° C., and HBS-EP+ (GE Healthcare Japan Corp.) was used as a running buffer. […] Each parameter was calculated using Biacore T200 Evaluation Software (GE Healthcare Japan Corp.).

CD3ε homodimer protein [5] = target: T3, CD3ε homodimer protein (human, UniProt P07766 23-126, limits assumed); experiment: SPR
T3 construct: also called CD3 (CD3ε)
T3 sequence (P07766 23-126 limits assumed): as above
Method: Each one-amino acid altered form constructed, expressed, and purified in the paragraph (6-2) was evaluated using Biacore T200 (GE Healthcare Japan Corp.). An appropriate amount of CD3ε homodimer protein was immobilized onto Sensor chip CM4 (GE Healthcare Japan Corp.) by the amine coupling method. Then, the antibody having an appropriate concentration was injected thereto as an analyte and allowed to interact with the CD3ε homodimer protein on the sensor chip. Then, the sensor chip was regenerated by the injection of 10 mmol/L glycine-HCl (pH 1.5). The assay was conducted at 25° C., and HBS-EP+ (GE Healthcare Japan Corp.) was used as a running buffer. […] Each parameter was calculated using Biacore T200 Evaluation Software (GE Healthcare Japan Corp.).
Specifically, when the amount of the GLS3000-containing antibody bound was defined as X and the amount of the L chain one-amino acid altered form bound was defined as Y, a value of Z (ratio of amounts bound)=Y/X was used.

B1: 154R5A02#1 one-arm antibody (antibody, human IgG1, kappa, L234A L235A, N297A)
heavy: QVQLVESGGGLVQPGRSLRLSCAASGFTFSNAWMHWVRQAPGKGLEWVAQIKDRGNNYNTYYAPSVKGRFTISRDDSKNSIYLQMNSLKTEDTAVYYCRYVHYGSYFFSGSSFGVDIWGQGTTVTVSSASTKGPSVFPLAPSSKSTSGGTAALGCLVKDYFPEPVTVSWNSGALTSGVHTFPAVLQSSGLYSLSSVVTVPSSSLGTQTYICNVNHKPSNTKVDKKVEPKSCDKTHTCPPCPAPEAAGGPSVFLFPPKPKDTLMISRTPEVTCVVVDVSHEDPEVKFNWYVDGVEVHNAKTKPREEQYASTYRVVSVLTVLHQDWLNGKEYKCKVSNKALPAPIEKTISKAKGQPREPQVYTLPPSRCELTKNQVSLSCAVKGFYPSDIAVEWESNGQPENNYKTTPPVLDSDGSFFLVSKLTVDKSRWQQGNVFSCSVMHEALHNHYTQKSLSLSPDYKDDDDK
chain: EPKSSDKTHTCPPCPAPELLGGPSVFLFPPKPKDTLMISRTPEVTCVVVDVSHEDPEVKFNWYVDGVEVHNAKTKPREEQYNSTYRVVSVLTVLHQDWLNGKEYKCKVSNKALPAPIEKTISKAKGQPREPQVCTLPPSRDELTKNQVSLWCLVKGFYPSDIAVEWESNGQPENNYKTTPPVLDSDGSFFLYSKLTVDKSRWQQGNVFSCSVMHEALHNRYTQKSLSLSP
light: DIVMTQSPLSLPVTPGEPASISCRSSQSLVHSNRNTYLHWYQQKPGQAPRLLIYKVSNRFSGVPDRFSGSGSGTDFTLKISRVEAEDVGVYYCGQGTQVPYTFGQGTKLEIKRTVAAPSVFIFPPSDEQLKSGTASVVCLLNNFYPREAKVQWKVDNALQSGNSQESVTEQDSKDSTYSLSSTLTLSKADYEKHKVYACEVTHQGLSSPVTKSFNRGEC
notes: As m48
Human CD154 [1]
  relative ECL reaction (to no antigen coating): 10

B2: 154R4B03#4 one-arm antibody (antibody, human IgG1, kappa, L234A L235A, N297A)
heavy: QVQLVESGGGLVQPGRSLRLSCAASGFTFSNAWMHWVRQAPGKGLEWVAQIKDKQSQYANYYAPSVKGRFTISRDDSKSSIYLQMNSLKTEDTAVYYCRYVHYQSTSYSFYQGGVDAWGQGTTVTVSSASTKGPSVFPLAPSSKSTSGGTAALGCLVKDYFPEPVTVSWNSGALTSGVHTFPAVLQSSGLYSLSSVVTVPSSSLGTQTYICNVNHKPSNTKVDKKVEPKSCDKTHTCPPCPAPEAAGGPSVFLFPPKPKDTLMISRTPEVTCVVVDVSHEDPEVKFNWYVDGVEVHNAKTKPREEQYASTYRVVSVLTVLHQDWLNGKEYKCKVSNKALPAPIEKTISKAKGQPREPQVYTLPPSRCELTKNQVSLSCAVKGFYPSDIAVEWESNGQPENNYKTTPPVLDSDGSFFLVSKLTVDKSRWQQGNVFSCSVMHEALHNHYTQKSLSLSPDYKDDDDK
chain: B1 chain
light: B1 light
notes: As m48
Human CD154 [2]
  relative ECL reaction (to no antigen coating): 20

B3: One-arm antibody: NNS6f51 (CE115HA340 with GFLVLW inserted between Kabat positions 99 and 100) / Kn010G3 / GLS3000-kappa (antibody)
chain 1: QVQLVESGGGLVQPGRSLRLSCAASGFTFSNAWMHWVRQAPGKGLEWVAQIKDKSNNYATYYAESVKGRFTISRDDSKNSIYLQMNSLKTEDTAVYYCRYVHYAAGFLVLWYYGVDAWGQGTTVTVSSASTKGPSVFPLAPSSKSTSGGTAALGCLVKDYFPEPVTVSWNSGALTSGVHTFPAVLQSSGLYSLSSVVTVPSSSLGTQTYICNVNHKPSNTKVDKKVEPKSCDKTHTCPPCPAPEAAGGPSVFLFPPKPKDTLMISRTPEVTCVVVDVSHEDPEVKFNWYVDGVEVHNAKTKPREEQYASTYRVVSVLTVLHQDWLNGKEYKCKVSNKALPAPIEKTISKAKGQPREPQVYTLPPSRCELTKNQVSLSCAVKGFYPSDIAVEWESNGQPENNYKTTPPVLDSDGSFFLVSKLTVDKSRWQQGNVFSCSVMHEALHNHYTQKSLSLSPDYKDDDDK
chain 2: B1 chain
chain 3: B1 light
CD3ε homodimer protein [3]
  Kd: 31 nM

B4: 154R4B03#1 one-arm antibody (antibody, human IgG1, kappa, L234A L235A, N297A)
heavy: B2 heavy with S79N
chain: B1 chain
light: B1 light
notes: As m48
Human CD154 [2]
  relative ECL reaction (to no antigen coating): 18

B5: One-arm antibody: NNS6f54 (CE115HA340 with FEWVGW inserted between Kabat positions 99 and 100) / Kn010G3 / GLS3000-kappa (antibody)
chain 1: B3 chain 1 with G106F, F107E, L108W, L110G
chain 2: B1 chain
chain 3: B1 light
CD3ε homodimer protein [3]
  Kd: 29 nM

B6: One-arm antibody: NNS6f47 (CE115HA340 with HFMWWG inserted between Kabat positions 99 and 100) / Kn010G3 / GLS3000-kappa (antibody)
chain 1: B3 chain 1 with G106H, L108M, V109W, L110W, W111G
chain 2: B1 chain
chain 3: B1 light
CD3ε homodimer protein [3]
  Kd: 31 nM

B7: CE115HA000 K52E one-arm antibody (antibody, human IgG1, kappa, L234A L235A, N297A, name in Kabat numbering)
heavy: QVQLVESGGGVVQPGRSLRLSCAASGFTFSNAWMHWVRQAPGKGLEWVAQIEAKSNNYATYYAESVKGRFTISRDDSKNSLYLQMNSLKTEDTAVYYCRYVHYGAYYGVDAWGQGTTVTVSSASTKGPSVFPLAPSSKSTSGGTAALGCLVKDYFPEPVTVSWNSGALTSGVHTFPAVLQSSGLYSLSSVVTVPSSSLGTQTYICNVNHKPSNTKVDKKVEPKSCDKTHTCPPCPAPEAAGGPSVFLFPPKPKDTLMISRTPEVTCVVVDVSHEDPEVKFNWYVDGVEVHNAKTKPREEQYASTYRVVSVLTVLHQDWLNGKEYKCKVSNKALPAPIEKTISKAKGQPREPQVYTLPPSRCELTKNQVSLSCAVKGFYPSDIAVEWESNGQPENNYKTTPPVLDSDGSFFLVSKLTVDKSRWQQGNVFSCSVMHEALHNHYTQKSLSLSPDYKDDDDK
chain: B1 chain
light: B1 light
CD3ε homodimer protein [4]
  KD ratio (KD of CE115HA000/KD of altered form): 18.4

B8: CE115HA000 D101K one-arm antibody (antibody, human IgG1, kappa, L234A L235A, N297A, name in Kabat numbering)
heavy: B7 heavy with E52K, D110K
chain: B1 chain
light: B1 light
CD3ε homodimer protein [4]
  KD ratio (KD of CE115HA000/KD of altered form): 4.32

B9: CE115HA000 G98K one-arm antibody (antibody, human IgG1, kappa, L234A L235A, N297A, name in Kabat numbering)
heavy: B7 heavy with E52K, G104K
chain: B1 chain
light: B1 light
CD3ε homodimer protein [4]
  KD ratio (KD of CE115HA000/KD of altered form): 1.85

B10: CE115HA000 Q50A one-arm antibody (antibody, human IgG1, kappa, L234A L235A, N297A, name in Kabat numbering)
heavy: B7 heavy with Q50A, E52K
chain: B1 chain
light: B1 light
CD3ε homodimer protein [4]
  KD ratio (KD of CE115HA000/KD of altered form): 22.8

B11: 154R5E11#3 one-arm antibody (antibody, human IgG1, kappa, L234A L235A, N297A)
heavy: B1 heavy with N59A, T60A, P64E, S109A, G110S, S111F, S112Y, T123A
chain: B1 chain
light: B1 light
notes: As m48
Human CD154 [1]
  relative ECL reaction (to no antigen coating): 1

B12: CE115HA000 D101R one-arm antibody (antibody, human IgG1, kappa, L234A L235A, N297A, name in Kabat numbering)
heavy: B7 heavy with E52K, D110R
chain: B1 chain
light: B1 light
CD3ε homodimer protein [4]
  KD ratio (KD of CE115HA000/KD of altered form): 5.55

B13: CE115HA000 S52cK one-arm antibody (antibody, human IgG1, kappa, L234A L235A, N297A, name in Kabat numbering)
heavy: B7 heavy with E52K, S55K
chain: B1 chain
light: B1 light
CD3ε homodimer protein [4]
  KD ratio (KD of CE115HA000/KD of altered form): 0.88

B14: 154R5F08#3 one-arm antibody (antibody, human IgG1, kappa, L234A L235A, N297A)
heavy: B1 heavy with R54K, N57Q, N59A, P64E, F70Y, S105T, S109A, G110L, S111P, S112A
chain: B1 chain
light: B1 light
notes: As m48
Human CD154 [1]
  relative ECL reaction (to no antigen coating): 10

B15: 154R5F08#1 one-arm antibody (antibody, human IgG1, kappa, L234A L235A, N297A)
heavy: B1 heavy with R54K, N57Q, N59A, P64E, S105T, S109A, G110L, S111P, S112A
chain: B1 chain
light: B1 light
notes: As m48
Human CD154 [1]
  relative ECL reaction (to no antigen coating): 13

B16: CE115HA000 W33L one-arm antibody (antibody, human IgG1, kappa, L234A L235A, N297A, name in Kabat numbering)
heavy: B7 heavy with W33L, E52K
chain: B1 chain
light: B1 light
CD3ε homodimer protein [4]
  KD ratio (KD of CE115HA000/KD of altered form): 56600

B17: 154R5A02#2 one-arm antibody (antibody, human IgG1, kappa, L234A L235A, N297A)
heavy: B1 heavy with V101A
chain: B1 chain
light: B1 light
notes: As m48
Human CD154 [1]
  relative ECL reaction (to no antigen coating): 106

B18: CE115HA000 A52aE one-arm antibody (antibody, human IgG1, kappa, L234A L235A, N297A, name in Kabat numbering)
heavy: B7 heavy with E52K, A53E
chain: B1 chain
light: B1 light
CD3ε homodimer protein [4]
  KD ratio (KD of CE115HA000/KD of altered form): 0.88

B19: GLS3000 L33P (antibody, name in Kabat numbering, V domains shown)
VH: QVQLVESGGGVVQPGRSLRLSCAASGFTFSNAWMHWVRQAPGKGLEWVAQIKAKSNNYATYYAESVKGRFTISRDDSKNSLYLQMNSLKTEDTAVYYCRYVHYGAYYGVDAWGQGTTVTVSS
VL: DIVMTQSPLSLPVTPGEPASISCRSSQSLVHSNRNTYPHWYQQKPGQAPRLLIYKVSNRFSGVPDRFSGSGSGTDFTLKISRVEAEDVGVYYCGQGTQVPYTFGQGTKLEIK
notes: one-arm, rest as m2
CD3ε homodimer protein [5]
  KD ratio to GLS3000: 32.7
